Molecular target: His6:ΔIBB-IMPORTIN-α2 (Arabidopsis thaliana (Mouse-ear cress), UniProt F4JL11)
Test: analytical SEC

Sequence of His6:ΔIBB-IMPORTIN-α2 (F4JL11 75-535, stated change not applied): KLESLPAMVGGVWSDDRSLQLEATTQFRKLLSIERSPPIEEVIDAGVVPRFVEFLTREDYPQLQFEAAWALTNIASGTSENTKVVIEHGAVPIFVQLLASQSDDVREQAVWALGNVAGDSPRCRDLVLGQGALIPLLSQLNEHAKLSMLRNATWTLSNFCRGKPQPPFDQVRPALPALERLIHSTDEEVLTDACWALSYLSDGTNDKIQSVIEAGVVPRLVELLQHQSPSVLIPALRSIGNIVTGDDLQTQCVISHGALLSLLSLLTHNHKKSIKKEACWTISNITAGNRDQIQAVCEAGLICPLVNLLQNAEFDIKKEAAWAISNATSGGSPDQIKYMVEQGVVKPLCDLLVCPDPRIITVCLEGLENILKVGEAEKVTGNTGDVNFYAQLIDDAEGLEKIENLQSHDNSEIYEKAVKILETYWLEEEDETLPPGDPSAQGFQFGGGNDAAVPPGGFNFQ

B1: His6:SUMO:SAP (protein)
chain: MANKLKVDELRLKLAERGLSTTGVKAVLVERLEEAIAEDTKKEESKSKRKRNSSNDTYESNKLIAIGEFRGMIVKELREEAIKRGLDTTGTKKDLLERLCNDANN
B1: no binding.

From article PMC6230994 (2018)
